Data: the RNAGym collection of RNA variant scans (doi:10.1021/acssynbio.7b00057)

B1: Pistol ribozyme (parent)
chain: GGGUCGUUGUUCCAUAAUCGCGUGGAUAUGGCACGCAAGUUUCUACCGGGCACCGUAAAUGUCCGACUGGAGCCGUUCGGGCGGCUAUAAACAGACCUCAGGCCCGAAGCGUGGCGGCACCUGCCGCCGGUGGUAAAAAAGAUCGGAAGAGCACACGUCU

Variants of: B1
Test: aptazyme ON/OFF ratio, guanine; higher = stronger switching; co-transcriptional cleavage with and without guanine

| Variant | aptazyme ON/OFF ratio |
| --- | --- |
| GGGUCGUACGUGGAUAAUCGCGUGGAUAUGGCACGCAAGUUUCUACCGGGCACCGUAAAUGUCCGACUGGAGCCGUUCGGGCGGCUAUAAACAGACCUCAGGCCCGAAGCGUGGCGGCACCUGCCGCCGGUGGUAAAAAAGAUCGGAAGAGCACACGUCU [U8A G9C U10G C12G C13G] | 1.15 |
| GGGUCGUACGUGUAUAAUCGCGUGGAUAUGGCACGCAAGUUUCUACCGGGCACCGUAAAUGUCCGACUGGAGCCGUUCGGGCGGCUAUAAACAGACCUCAGGCCCGAAGCGUGGCGGCACCUGCCGCCGGUGGUAAAAAAGAUCGGAAGAGCACACGUCU [U8A G9C U10G C12G C13U] | 1.2 |
| GGGUCGUACGUGAAUAAUCGCGUGGAUAUGGCACGCAAGUUUCUACCGGGCACCGUAAAUGUCCGACUGGAGCCGUUCGGGCGGCUAUAAACAGACCUCAGGCCCGAAGCGUGGCGGCACCUGCCGCCGGUGGUAAAAAAGAUCGGAAGAGCACACGUCU [U8A G9C U10G C12G C13A] | 1.23 |
| GGGUCGUACCGUUAUAAUCGCGUGGAUAUGGCACGCAAGUUUCUACCGGGCACCGUAAAUGUCCGACUGGAGCCGUUCGGGCGGCUAUAAACAGACCUCAGGCCCGAAGCGUGGCGGCACCUGCCGCCGGUGGUAAAAAAGAUCGGAAGAGCACACGUCU [U8A G9C U10C U11G C12U C13U] | 1.07 |
| GGGUCGUACCGUAAUAAUCGCGUGGAUAUGGCACGCAAGUUUCUACCGGGCACCGUAAAUGUCCGACUGGAGCCGUUCGGGCGGCUAUAAACAGACCUCAGGCCCGAAGCGUGGCGGCACCUGCCGCCGGUGGUAAAAAAGAUCGGAAGAGCACACGUCU [U8A G9C U10C U11G C12U C13A] | 1.07 |
| GGGUCGUACCGUGAUAAUCGCGUGGAUAUGGCACGCAAGUUUCUACCGGGCACCGUAAAUGUCCGACUGGAGCCGUUCGGGCGGCUAUAAACAGACCUCAGGCCCGAAGCGUGGCGGCACCUGCCGCCGGUGGUAAAAAAGAUCGGAAGAGCACACGUCU [U8A G9C U10C U11G C12U C13G] | 1.08 |
| GGGUCGUACGUACAUAAUCGCGUGGAUAUGGCACGCAAGUUUCUACCGGGCACCGUAAAUGUCCGACUGGAGCCGUUCGGGCGGCUAUAAACAGACCUCAGGCCCGAAGCGUGGCGGCACCUGCCGCCGGUGGUAAAAAAGAUCGGAAGAGCACACGUCU [U8A G9C U10G C12A] | 1.18 |
| GGGUCGUACGUGCAUAAUCGCGUGGAUAUGGCACGCAAGUUUCUACCGGGCACCGUAAAUGUCCGACUGGAGCCGUUCGGGCGGCUAUAAACAGACCUCAGGCCCGAAGCGUGGCGGCACCUGCCGCCGGUGGUAAAAAAGAUCGGAAGAGCACACGUCU [U8A G9C U10G C12G] | 1.17 |
| GGGUCGUACGUUCAUAAUCGCGUGGAUAUGGCACGCAAGUUUCUACCGGGCACCGUAAAUGUCCGACUGGAGCCGUUCGGGCGGCUAUAAACAGACCUCAGGCCCGAAGCGUGGCGGCACCUGCCGCCGGUGGUAAAAAAGAUCGGAAGAGCACACGUCU [U8A G9C U10G C12U] | 1.28 |
| GGGUCGUACCCCAAUAAUCGCGUGGAUAUGGCACGCAAGUUUCUACCGGGCACCGUAAAUGUCCGACUGGAGCCGUUCGGGCGGCUAUAAACAGACCUCAGGCCCGAAGCGUGGCGGCACCUGCCGCCGGUGGUAAAAAAGAUCGGAAGAGCACACGUCU [U8A G9C U10C U11C C13A] | 1.02 |
| GGGUCGUACCCCUAUAAUCGCGUGGAUAUGGCACGCAAGUUUCUACCGGGCACCGUAAAUGUCCGACUGGAGCCGUUCGGGCGGCUAUAAACAGACCUCAGGCCCGAAGCGUGGCGGCACCUGCCGCCGGUGGUAAAAAAGAUCGGAAGAGCACACGUCU [U8A G9C U10C U11C C13U] | 0.998 |
| GGGUCGUACCCCGAUAAUCGCGUGGAUAUGGCACGCAAGUUUCUACCGGGCACCGUAAAUGUCCGACUGGAGCCGUUCGGGCGGCUAUAAACAGACCUCAGGCCCGAAGCGUGGCGGCACCUGCCGCCGGUGGUAAAAAAGAUCGGAAGAGCACACGUCU [U8A G9C U10C U11C C13G] | 1.06 |
| GGGUCGUACCCUUAUAAUCGCGUGGAUAUGGCACGCAAGUUUCUACCGGGCACCGUAAAUGUCCGACUGGAGCCGUUCGGGCGGCUAUAAACAGACCUCAGGCCCGAAGCGUGGCGGCACCUGCCGCCGGUGGUAAAAAAGAUCGGAAGAGCACACGUCU [U8A G9C U10C U11C C12U C13U] | 1.03 |
| GGGUCGUACCCUGAUAAUCGCGUGGAUAUGGCACGCAAGUUUCUACCGGGCACCGUAAAUGUCCGACUGGAGCCGUUCGGGCGGCUAUAAACAGACCUCAGGCCCGAAGCGUGGCGGCACCUGCCGCCGGUGGUAAAAAAGAUCGGAAGAGCACACGUCU [U8A G9C U10C U11C C12U C13G] | 1.01 |
| GGGUCGUACGUCCAUAAUCGCGUGGAUAUGGCACGCAAGUUUCUACCGGGCACCGUAAAUGUCCGACUGGAGCCGUUCGGGCGGCUAUAAACAGACCUCAGGCCCGAAGCGUGGCGGCACCUGCCGCCGGUGGUAAAAAAGAUCGGAAGAGCACACGUCU [U8A G9C U10G] | 1.54 |
| GGGUCGUACGUCAAUAAUCGCGUGGAUAUGGCACGCAAGUUUCUACCGGGCACCGUAAAUGUCCGACUGGAGCCGUUCGGGCGGCUAUAAACAGACCUCAGGCCCGAAGCGUGGCGGCACCUGCCGCCGGUGGUAAAAAAGAUCGGAAGAGCACACGUCU [U8A G9C U10G C13A] | 1.38 |
| GGGUCGUACGUCGAUAAUCGCGUGGAUAUGGCACGCAAGUUUCUACCGGGCACCGUAAAUGUCCGACUGGAGCCGUUCGGGCGGCUAUAAACAGACCUCAGGCCCGAAGCGUGGCGGCACCUGCCGCCGGUGGUAAAAAAGAUCGGAAGAGCACACGUCU [U8A G9C U10G C13G] | 1.17 |
| GGGUCGUACCGAGAUAAUCGCGUGGAUAUGGCACGCAAGUUUCUACCGGGCACCGUAAAUGUCCGACUGGAGCCGUUCGGGCGGCUAUAAACAGACCUCAGGCCCGAAGCGUGGCGGCACCUGCCGCCGGUGGUAAAAAAGAUCGGAAGAGCACACGUCU [U8A G9C U10C U11G C12A C13G] | 1.08 |

| Variant | aptazyme ON/OFF ratio |
| --- | --- |
| GGGUCGUACCGAUAUAAUCGCGUGGAUAUGGCACGCAAGUUUCUACCGGGCACCGUAAAUGUCCGACUGGAGCCGUUCGGGCGGCUAUAAACAGACCUCAGGCCCGAAGCGUGGCGGCACCUGCCGCCGGUGGUAAAAAAGAUCGGAAGAGCACACGUCU [U8A G9C U10C U11G C12A C13U] | 1.02 |
| GGGUCGUACCGAAAUAAUCGCGUGGAUAUGGCACGCAAGUUUCUACCGGGCACCGUAAAUGUCCGACUGGAGCCGUUCGGGCGGCUAUAAACAGACCUCAGGCCCGAAGCGUGGCGGCACCUGCCGCCGGUGGUAAAAAAGAUCGGAAGAGCACACGUCU [U8A G9C U10C U11G C12A C13A] | 1.06 |
| GGGUCGUACCGCCAUAAUCGCGUGGAUAUGGCACGCAAGUUUCUACCGGGCACCGUAAAUGUCCGACUGGAGCCGUUCGGGCGGCUAUAAACAGACCUCAGGCCCGAAGCGUGGCGGCACCUGCCGCCGGUGGUAAAAAAGAUCGGAAGAGCACACGUCU [U8A G9C U10C U11G] | 0.775 |
| GGGUCGUACGUAGAUAAUCGCGUGGAUAUGGCACGCAAGUUUCUACCGGGCACCGUAAAUGUCCGACUGGAGCCGUUCGGGCGGCUAUAAACAGACCUCAGGCCCGAAGCGUGGCGGCACCUGCCGCCGGUGGUAAAAAAGAUCGGAAGAGCACACGUCU [U8A G9C U10G C12A C13G] | 1.03 |
| GGGUCGUACGUAAAUAAUCGCGUGGAUAUGGCACGCAAGUUUCUACCGGGCACCGUAAAUGUCCGACUGGAGCCGUUCGGGCGGCUAUAAACAGACCUCAGGCCCGAAGCGUGGCGGCACCUGCCGCCGGUGGUAAAAAAGAUCGGAAGAGCACACGUCU [U8A G9C U10G C12A C13A] | 1.19 |
| GGGUCGUACGUAUAUAAUCGCGUGGAUAUGGCACGCAAGUUUCUACCGGGCACCGUAAAUGUCCGACUGGAGCCGUUCGGGCGGCUAUAAACAGACCUCAGGCCCGAAGCGUGGCGGCACCUGCCGCCGGUGGUAAAAAAGAUCGGAAGAGCACACGUCU [U8A G9C U10G C12A C13U] | 1.37 |
| GGGUCGUACCGGGAUAAUCGCGUGGAUAUGGCACGCAAGUUUCUACCGGGCACCGUAAAUGUCCGACUGGAGCCGUUCGGGCGGCUAUAAACAGACCUCAGGCCCGAAGCGUGGCGGCACCUGCCGCCGGUGGUAAAAAAGAUCGGAAGAGCACACGUCU [U8A G9C U10C U11G C12G C13G] | 1.12 |
| GGGUCGUACCGGUAUAAUCGCGUGGAUAUGGCACGCAAGUUUCUACCGGGCACCGUAAAUGUCCGACUGGAGCCGUUCGGGCGGCUAUAAACAGACCUCAGGCCCGAAGCGUGGCGGCACCUGCCGCCGGUGGUAAAAAAGAUCGGAAGAGCACACGUCU [U8A G9C U10C U11G C12G C13U] | 1.09 |
| GGGUCGUACCGGAAUAAUCGCGUGGAUAUGGCACGCAAGUUUCUACCGGGCACCGUAAAUGUCCGACUGGAGCCGUUCGGGCGGCUAUAAACAGACCUCAGGCCCGAAGCGUGGCGGCACCUGCCGCCGGUGGUAAAAAAGAUCGGAAGAGCACACGUCU [U8A G9C U10C U11G C12G C13A] | 1.14 |
| GGGUCGUACGUUAAUAAUCGCGUGGAUAUGGCACGCAAGUUUCUACCGGGCACCGUAAAUGUCCGACUGGAGCCGUUCGGGCGGCUAUAAACAGACCUCAGGCCCGAAGCGUGGCGGCACCUGCCGCCGGUGGUAAAAAAGAUCGGAAGAGCACACGUCU [U8A G9C U10G C12U C13A] | 1.21 |
| GGGUCGUACGUUUAUAAUCGCGUGGAUAUGGCACGCAAGUUUCUACCGGGCACCGUAAAUGUCCGACUGGAGCCGUUCGGGCGGCUAUAAACAGACCUCAGGCCCGAAGCGUGGCGGCACCUGCCGCCGGUGGUAAAAAAGAUCGGAAGAGCACACGUCU [U8A G9C U10G C12U C13U] | 1.22 |
| GGGUCGUACGUUGAUAAUCGCGUGGAUAUGGCACGCAAGUUUCUACCGGGCACCGUAAAUGUCCGACUGGAGCCGUUCGGGCGGCUAUAAACAGACCUCAGGCCCGAAGCGUGGCGGCACCUGCCGCCGGUGGUAAAAAAGAUCGGAAGAGCACACGUCU [U8A G9C U10G C12U C13G] | 1.11 |
| GGGUCGUACCGGCAUAAUCGCGUGGAUAUGGCACGCAAGUUUCUACCGGGCACCGUAAAUGUCCGACUGGAGCCGUUCGGGCGGCUAUAAACAGACCUCAGGCCCGAAGCGUGGCGGCACCUGCCGCCGGUGGUAAAAAAGAUCGGAAGAGCACACGUCU [U8A G9C U10C U11G C12G] | 1.12 |
| GGGUCGUACCGUCAUAAUCGCGUGGAUAUGGCACGCAAGUUUCUACCGGGCACCGUAAAUGUCCGACUGGAGCCGUUCGGGCGGCUAUAAACAGACCUCAGGCCCGAAGCGUGGCGGCACCUGCCGCCGGUGGUAAAAAAGAUCGGAAGAGCACACGUCU [U8A G9C U10C U11G C12U] | 1.08 |
| GGGUCGUACCGACAUAAUCGCGUGGAUAUGGCACGCAAGUUUCUACCGGGCACCGUAAAUGUCCGACUGGAGCCGUUCGGGCGGCUAUAAACAGACCUCAGGCCCGAAGCGUGGCGGCACCUGCCGCCGGUGGUAAAAAAGAUCGGAAGAGCACACGUCU [U8A G9C U10C U11G C12A] | 1.07 |
| GGGUCGUACCGCAAUAAUCGCGUGGAUAUGGCACGCAAGUUUCUACCGGGCACCGUAAAUGUCCGACUGGAGCCGUUCGGGCGGCUAUAAACAGACCUCAGGCCCGAAGCGUGGCGGCACCUGCCGCCGGUGGUAAAAAAGAUCGGAAGAGCACACGUCU [U8A G9C U10C U11G C13A] | 1.08 |
| GGGUCGUACCGCGAUAAUCGCGUGGAUAUGGCACGCAAGUUUCUACCGGGCACCGUAAAUGUCCGACUGGAGCCGUUCGGGCGGCUAUAAACAGACCUCAGGCCCGAAGCGUGGCGGCACCUGCCGCCGGUGGUAAAAAAGAUCGGAAGAGCACACGUCU [U8A G9C U10C U11G C13G] | 1.05 |
| GGGUCGUACCGCUAUAAUCGCGUGGAUAUGGCACGCAAGUUUCUACCGGGCACCGUAAAUGUCCGACUGGAGCCGUUCGGGCGGCUAUAAACAGACCUCAGGCCCGAAGCGUGGCGGCACCUGCCGCCGGUGGUAAAAAAGAUCGGAAGAGCACACGUCU [U8A G9C U10C U11G C13U] | 1.08 |
